The target in assay [1] is T1, PSMA Fab.
T1 construct: also called Anti-PSMA Fab; 006 PSMA Fab
The assay can be described thus: clonal phage ELISA on captured PSMA Fab pre-incubated with PSMA antigen as competitor.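 Further: crude clonal phage supernatants added to wells without washing away the PSMA competitor, bound phage detected by HRP-conjugated anti-M13 antibody, reference wells received blocking buffer only.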 In general terms: In an ELISA, binding on a coated surface is turned into a signal by an enzyme label.
Experimental: (§1) Clonal phage were harvested as crude supernatants and screened via standard ELISAs. […] Prior to the addition of clonal phage. wells were incubated with blocking buffer and PSMA antigen or blocking buffer alone. Without washing or aspirating, clonal phage supernatants were then added to the wells and incubated for a short time. Wells were then washed followed by detection of bound phage using a horse radish conjugated anti-M13 antibody.

The target of assay [2] is T1, PSMA Fab. The experiment in a line: clonal phage ELISA on biotinylated PSMA Fab captured on neutravidin, anti-M13 HRP detection.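 Further: crude clonal phage supernatants added to wells pretreated with PSMA antigen in blocking buffer or with blocking buffer only, then briefly incubated.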
Experimental: as §1
Assay [3] has as its target T2, PSMA Fab (006 PSMA Fab).
T2 construct: also called Anti-PSMA Fab
The assay can be described thus: phage binding ELISA; PSMA Fab wells pre-incubated with PSMA antigen as competitor, anti-M13 HRP detection.
Experimental: as §1

For assay [4], the target named is T2, PSMA Fab (006 PSMA Fab). The experiment in a line: phage binding ELISA; biotinylated PSMA Fab on neutravidin plate, clonal phage supernatant, anti-M13 HRP detection.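 Further: wells were preincubated with blocking buffer either containing PSMA antigen or without it before crude phage supernatant was added, briefly incubated, then washed prior to detection.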
Experimental: as §1
The target of assay [5] is T3, PSMA Fab (006 PSMA Fab).
T3 construct: also called Anti-PSMA Fab; anti-PSMA Fab
The assay can be described thus: clonal phage ELISA on biotinylated PSMA Fab captured on neutravidin, anti-M13-HRP detection.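 Further: crude clonal phage supernatants added to wells preincubated with PSMA antigen in blocking buffer or with blocking buffer alone, brief binding period.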
Experimental: as §1

In assay [6] the target is T3, PSMA Fab (006 PSMA Fab). The experiment in a line: clonal phage ELISA on captured PSMA Fab, wells pre-incubated with PSMA antigen as competitor.
Experimental: as §1

Where no end group is shown, it is not given here.

B1: Phage-3164 (peptide)
peptide: MDKICSPMWMCLGF
modifications: cysteine pairing not given here; also: fused to phage pIII, fusion site not given here
In the case of B1, the “Phage binding ELISA signal, Anti-PSMA Fab in presence of PSMA” value in the assay with PSMA Fab [1] is 0.0702. In the assay with PSMA Fab [2], the “Phage binding ELISA signal, Anti-PSMA Fab” value was found to be 2.03.

B2: Phage-3162 (peptide)
peptide: ETALCRPLWMCDWL
modifications: cysteine pairing not given here; also: fused to phage pIII, fusion site not given here
On to B2, for which the “Phage binding ELISA signal, Anti-PSMA Fab in presence of PSMA” value in the assay with PSMA Fab [1] was 0.0692. Further, the “Phage binding ELISA signal, Anti-PSMA Fab” value with PSMA Fab [2] was 2.03.
Take IQILCTPTWMCVGF [Phage-3182]: in the assay with PSMA Fab (006 PSMA Fab) [3], the “Phage binding ELISA signal, Anti-PSMA Fab with PSMA antigen” value is 0.0781. Moreover, the “Phage binding ELISA signal, Anti-PSMA Fab” value in the assay with PSMA Fab (006 PSMA Fab) [4] stood at 2.01.

B3: Phage-3185 (peptide, not shown: large carriers)
peptide: IEKWCFPMWMCEGF
modifications: cysteine pairing not given here; also: fused to phage pIII, junction sequence not given here
notes: Clonal phage of the Peptide-180 library, tested as crude supernatant
As for B3, the “Phage binding ELISA signal, Anti-PSMA Fab” value with PSMA Fab (006 PSMA Fab) [5] came out at 2.01. For the same molecule, the “Phage binding ELISA signal, Anti-PSMA Fab in presence of PSMA antigen” value (“Phage binding ELISA signal … of PSMA antigen” for short) with PSMA Fab (006 PSMA Fab) [6] was 0.0806.

B4: Phage-3170 (peptide)
peptide: EVKFCKPAWMCTGF
modifications: cysteine pairing not given here; also: fused to phage pIII, fusion site not given here
In the case of B4, in the assay with PSMA Fab [1], the “Phage binding ELISA signal, Anti-PSMA Fab in presence of PSMA” value was determined as 0.0863. Further, the “Phage binding ELISA signal, Anti-PSMA Fab” value with PSMA Fab [2] was found to be 2.02.

B5: Phage-3188 (peptide, not shown: large carriers)
peptide: DMRVCKPEWMCTGL
notes: as for B3
With B5, the “Phage binding ELISA signal, Anti-PSMA Fab” value in the assay with PSMA Fab (006 PSMA Fab) [5] was determined as 2. The “Phage binding ELISA signal … of PSMA antigen” value with PSMA Fab (006 PSMA Fab) [6] is 0.109.

B6: Phage-3157 (peptide)
peptide: QMPMCRPAWMCMGF
modifications: cysteine pairing not given here; also: fused to phage pIII, orientation and linker not given here
Consider B6, for which, in the assay with PSMA Fab [1], the “Phage binding ELISA signal, Anti-PSMA Fab in presence of PSMA” value amounted to 0.105. For the same molecule, the “Phage binding ELISA signal, Anti-PSMA Fab” value with PSMA Fab [2] was determined as 2.04.

B7: Phage-3159 (peptide)
peptide: WMAMCKPVWMCEGF
modifications: cysteine pairing not given here; also: fused to phage pIII, orientation and linker not given here
With B7, in the assay with PSMA Fab [1], the “Phage binding ELISA signal, Anti-PSMA Fab in presence of PSMA” value stood at 0.163. The “Phage binding ELISA signal, Anti-PSMA Fab” value in the assay with PSMA Fab [2] amounted to 2.04.
For MVRLCEPEWMCTGF [Phage-3184], in the assay with PSMA Fab (006 PSMA Fab) [3], the “Phage binding ELISA signal, Anti-PSMA Fab with PSMA antigen” value was determined as 0.116. The “Phage binding ELISA signal, Anti-PSMA Fab” value in the assay with PSMA Fab (006 PSMA Fab) [4] is 2.01.

B8: Phage-3160 (peptide)
peptide: LALRCEPSWMCLGF
modifications: cysteine pairing not given here; also: fused to phage pIII, orientation and linker not given here
Turning to B8, the “Phage binding ELISA signal, Anti-PSMA Fab in presence of PSMA” value in the assay with PSMA Fab [1] is 0.112. The “Phage binding ELISA signal, Anti-PSMA Fab” value with PSMA Fab [2] worked out at 2.03.

B9: Phage-3187 (peptide, not shown: large carriers)
peptide: AAPMCIPAWMCHGF
notes: as for B3
In the case of B9, the “Phage binding ELISA signal, Anti-PSMA Fab” value with PSMA Fab (006 PSMA Fab) [5] was found to be 2. Besides, the “Phage binding ELISA signal … of PSMA antigen” value with PSMA Fab (006 PSMA Fab) [6] worked out at 0.137.

B10: Phage-3169 (peptide)
peptide: VEKLCKPEWMCMGF
modifications: cysteine pairing not given here; also: fused to phage pIII, fusion site not given here
With B10, the “Phage binding ELISA signal, Anti-PSMA Fab in presence of PSMA” value in the assay with PSMA Fab [1] turned out to be 0.0909. Besides, the “Phage binding ELISA signal, Anti-PSMA Fab” value with PSMA Fab [2] was determined as 2.02.

B11: Phage-3165 (peptide)
peptide: NVHYCVPAWMCNGF
modifications: cysteine pairing not given here; also: fused to phage pIII, fusion site not given here
B11: the “Phage binding ELISA signal, Anti-PSMA Fab in presence of PSMA” value in the assay with PSMA Fab [1] was 0.163. Moreover, the “Phage binding ELISA signal, Anti-PSMA Fab” value with PSMA Fab [2] was determined as 2.03.
For ANLLCIPNWMCSGF [Phage-3172], the “Phage binding ELISA signal, Anti-PSMA Fab with PSMA antigen” value with PSMA Fab (006 PSMA Fab) [3] was found to be 0.0969. The “Phage binding ELISA signal, Anti-PSMA Fab” value in the assay with PSMA Fab (006 PSMA Fab) [4] was 2.02.

B12: Phage-3166 (peptide)
peptide: LVRVCTPMWMCQGF
modifications: cysteine pairing not given here; also: fused to phage pIII, fusion site not given here
Regarding B12, in the assay with PSMA Fab [1], the “Phage binding ELISA signal, Anti-PSMA Fab in presence of PSMA” value turned out to be 0.058. Further, the “Phage binding ELISA signal, Anti-PSMA Fab” value with PSMA Fab [2] was found to be 2.03.

B13: Phage-3186 (peptide, not shown: large carriers)
peptide: VSELCRPAWMCHGF
notes: as for B3
Turning to B13, in the assay with PSMA Fab (006 PSMA Fab) [5], the “Phage binding ELISA signal, Anti-PSMA Fab” value was determined as 2. The “Phage binding ELISA signal … of PSMA antigen” value in the assay with PSMA Fab (006 PSMA Fab) [6] stood at 0.082.
Turning to GVSMCIPAWMCQGF [Phage-3181], the “Phage binding ELISA signal, Anti-PSMA Fab with PSMA antigen” value with PSMA Fab (006 PSMA Fab) [3] worked out at 0.0737. The “Phage binding ELISA signal, Anti-PSMA Fab” value with PSMA Fab (006 PSMA Fab) [4] came to 2.01.
MDRMCVPEWMCYVF [Phage-3173]: in the assay with PSMA Fab (006 PSMA Fab) [3], the “Phage binding ELISA signal, Anti-PSMA Fab with PSMA antigen” value stood at 0.0741. Also, in the assay with PSMA Fab (006 PSMA Fab) [4], the “Phage binding ELISA signal, Anti-PSMA Fab” value is 2.02.

B14: Phage-3171 (peptide)
peptide: GEVFCIPAWMCAGF
modifications: cysteine pairing not given here; also: fused to phage pIII, fusion site not given here
On to B14, for which the “Phage binding ELISA signal, Anti-PSMA Fab with PSMA antigen” value in the assay with PSMA Fab (006 PSMA Fab) [3] stood at 0.107. Moreover, in the assay with PSMA Fab (006 PSMA Fab) [4], the “Phage binding ELISA signal, Anti-PSMA Fab” value was 2.02.

B15: Phage-3161 (peptide)
peptide: NHVQCVPNWMCSGF
modifications: cysteine pairing not given here; also: fused to phage pIII, fusion site not given here
Turning to B15, the “Phage binding ELISA signal, Anti-PSMA Fab in presence of PSMA” value with PSMA Fab [1] was determined as 0.138. The “Phage binding ELISA signal, Anti-PSMA Fab” value with PSMA Fab [2] was 2.03.
As for YPSMCKPLWMCQGF [Phage-3175], the “Phage binding ELISA signal, Anti-PSMA Fab with PSMA antigen” value in the assay with PSMA Fab (006 PSMA Fab) [3] amounted to 0.111. Moreover, in the assay with PSMA Fab (006 PSMA Fab) [4], the “Phage binding ELISA signal, Anti-PSMA Fab” value amounted to 2.02.
The like results for VTRMCVPEWMCSGI [Phage-3176] were, in that order, 0.0628 and 2.02.

B16: Phage-3163 (peptide)
peptide: DIHLCTPNWMCSGF
modifications: cysteine pairing not given here; also: fused to phage pIII, fusion site not given here
Consider B16, for which the “Phage binding ELISA signal, Anti-PSMA Fab in presence of PSMA” value with PSMA Fab [1] was determined as 0.0738. Also, the “Phage binding ELISA signal, Anti-PSMA Fab” value with PSMA Fab [2] is 2.03.
With EGAICKPEWMCKGF [Phage-3183], the “Phage binding ELISA signal, Anti-PSMA Fab with PSMA antigen” value in the assay with PSMA Fab (006 PSMA Fab) [3] is 0.0737. Besides, the “Phage binding ELISA signal, Anti-PSMA Fab” value with PSMA Fab (006 PSMA Fab) [4] turned out to be 2.01.
In the case of HERECIPRWMCTGF [Phage-3180], the “Phage binding ELISA signal, Anti-PSMA Fab with PSMA antigen” value with PSMA Fab (006 PSMA Fab) [3] came out at 0.065. The “Phage binding ELISA signal, Anti-PSMA Fab” value with PSMA Fab (006 PSMA Fab) [4] was determined as 2.01.
As for VTAKCVPEWMCTGF [Phage-3174], in the assay with PSMA Fab (006 PSMA Fab) [3], the “Phage binding ELISA signal, Anti-PSMA Fab with PSMA antigen” value worked out at 0.0968. Besides, the “Phage binding ELISA signal, Anti-PSMA Fab” value in the assay with PSMA Fab (006 PSMA Fab) [4] is 2.02.
For YEQACQPPWMCLGF [Phage-3178], the “Phage binding ELISA signal, Anti-PSMA Fab with PSMA antigen” value with PSMA Fab (006 PSMA Fab) [3] is 0.0671. Moreover, the “Phage binding ELISA signal, Anti-PSMA Fab” value with PSMA Fab (006 PSMA Fab) [4] was determined as 2.02.

B17: Phage-3158 (peptide)
peptide: IVPYCMPQWMCSGF
modifications: cysteine pairing not given here; also: fused to phage pIII, orientation and linker not given here
In the case of B17, the “Phage binding ELISA signal, Anti-PSMA Fab in presence of PSMA” value with PSMA Fab [1] is 0.107. Also, in the assay with PSMA Fab [2], the “Phage binding ELISA signal, Anti-PSMA Fab” value was 2.04.
With YEPVCRPAWMCIGF [Phage-3177], the “Phage binding ELISA signal, Anti-PSMA Fab with PSMA antigen” value with PSMA Fab (006 PSMA Fab) [3] stood at 0.0622. For the same molecule, the “Phage binding ELISA signal, Anti-PSMA Fab” value in the assay with PSMA Fab (006 PSMA Fab) [4] was 2.02.
With YMMICRPAWMCSGL [Phage-3179], in the assay with PSMA Fab (006 PSMA Fab) [3], the “Phage binding ELISA signal, Anti-PSMA Fab with PSMA antigen” value was determined as 0.116. For the same molecule, the “Phage binding ELISA signal, Anti-PSMA Fab” value in the assay with PSMA Fab (006 PSMA Fab) [4] was found to be 2.01.

B18: Phage-3168 (peptide)
peptide: ADWLCRPAWMCEGL
modifications: cysteine pairing not given here; also: fused to phage pIII, fusion site not given here
B18: in the assay with PSMA Fab [1], the “Phage binding ELISA signal, Anti-PSMA Fab in presence of PSMA” value was 0.0589. In the assay with PSMA Fab [2], the “Phage binding ELISA signal, Anti-PSMA Fab” value was 2.02.

B19: Phage-3167 (peptide)
peptide: TYPKCIPPWMCTGF
modifications: cysteine pairing not given here; also: fused to phage pIII, fusion site not given here
As for B19, in the assay with PSMA Fab [1], the “Phage binding ELISA signal, Anti-PSMA Fab in presence of PSMA” value amounted to 0.115. Moreover, the “Phage binding ELISA signal, Anti-PSMA Fab” value in the assay with PSMA Fab [2] is 2.03.

(Values after patent US20260242478A1 (published 2026).)
